Test results as given in FireProtDB (doi:10.1016/j.jmb.2004.06.079).

Conditions: Chloroflexus aurantiacus (strain ATCC 29366 / DSM 635 / J-10-fl), Thermal, CD, whole UniProt chain shown

B1: Malate dehydrogenase wild type, P80040 (protein)
chain: MRKKISIIGAGFVGSTTAHWLAAKELGDIVLLDFVEGVPQGKALDLYEASPIEGFDVRVTGTNNYADTANSDVIVVTSGAPRKPGMSREDLIKVNADITRACISQAAPLSPNAVIIMVNNPLDAMTYLAAEVSGFPKERVIGQAGVLDAARYRTFIAMEAGVSVEDVQAMLMGGHGDEMVPLPRFSTISGIPVSEFIAPDRLAQIVERTRKGGGEIVNLLKTGSAYYAPAAATAQMVEAVLKDKKRVMPVAAYLTGQYGLNDIYFGVPVILGAGGVEKILELPLNEEEMALLNASAKAVRATLDTLKSL
pH 4.4, sodium acetate 10 mM
  Tm: 80.4 °C
pH 6, potassium phosphate 10 mM
  Tm: 79.4 °C
pH 7.5, potassium phosphate 10 mM
  Tm: 67.8 °C
